Test results taken from patent publication US20210061908A1 (IOMX THERAPEUTICS, published 2021).
Numbering of substitutions follows the chain as printed.

B1: A-006 (human IgG1 format) (antibody, V domains shown)
VH: EVQLVESGGGLIQPGGSLRLSCAASGFTVSSNYMSWVRQAPGKGLEWVSVIYSGGSTYYADSVKGRFTISRDNSKNTLYLQMNSLRAEDTAVYYCARGNPYYYGDLQVNFDYWGQGTLVTVSS
VL: QAVVTQEPSLTVSPGGTVTLTCASSTGAVTSGYYPNWFQQKPGQAPRPLIYSTSNKHSWTPARFSGSLLGGKAALTLSGVQPDDEAEYYCLLYYGGDWVFGGGTKLTVL
notes: human IgG1 format
B2: A-012 (human IgG1 format) (antibody, V domains shown)
VH: B1 VH with V5L, A24V
VL: B1 VL with P48A, D83E, D97A
notes: human IgG1 format
B3: A-011 (human IgG1 format) (antibody, V domains shown)
VH: QVQLVESGGGVVQPGRSLRLSCAASGFTFSSYAMHWVRQAPGKGLEWVAVISYDGSNKYYADSVKGRFTISRDNSKNTLYLQMNSLRAEDTAVYYCAEGGALNYYGMDVWGQGTTVTVSS
VL: SSELTQDPGVSVALGQTVRITCQGDSLRHFYATWYQQKPGQAPILVIYGKNNRPSGIPDRFSGSSSEDTASLTITGAQAEDEADYYCQSRDPRNNHLIFGGGTKLIVL
notes: human IgG1 format
B4: B-003 (chain-swapped, human IgG1 format) (antibody, V domains shown)
VH: B1 VH with V5L, A24V
VL: B1 VL with G16E, K41R, P48A, H57D, D83E, D97A
notes: VH of A-012 with VL of A-005; IgG1 format; also called B3; Chains-B-003
B5: B-005 (chain-swapped, human IgG1 format) (antibody, V domains shown)
VH: B1 VH with V5L, A24V
VL: B1 VL with L20P, A23G, Y33N, Y34L, P48A, F64I, D83E, D97A
notes: VH of A-012 with VL of A-002; IgG1 format; also called B5; Chains-B-005
B6: A-007 (human IgG1 format) (antibody, V domains shown)
VH: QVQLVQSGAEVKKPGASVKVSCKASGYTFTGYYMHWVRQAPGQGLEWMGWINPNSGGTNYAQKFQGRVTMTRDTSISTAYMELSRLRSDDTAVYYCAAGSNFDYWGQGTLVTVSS
VL: QSALTQPASVSGSPGQSITIACTGSSSDIGSFSYVSWYQQRPGKAPTLIIYGVNNRPLGVSRRFSGSKSGNTASLSISGLQAEDEADYYCSSYTRRSTVIFGGGTKLTVL
notes: human IgG1 format
B7: B-007 (chain-swapped, human IgG1 format) (antibody, V domains shown)
VH: B1 VH
VL: B1 VL with G32A, P48A, D83E, E87D, D97A
notes: VH of A-006 with VL of A-013; IgG1 format; also called B7; Chains-B-007
B8: B-008 (chain-swapped, human IgG1 format) (antibody, V domains shown)
VH: B1 VH
VL: B1 VL with L20P, A23G, Y33N, Y34L, P48A, F64I, D83E, D97A
notes: VH of A-006 with VL of A-002; IgG1 format; also called B8; Chains-B-008
B9: A-013 (human IgG1 format) (antibody, V domains shown)
VH: B1 VH
VL: B1 VL with G32A, P48A, D83E, E87D, D97A
notes: human IgG1 format
B10: A-024 (human IgG1 format) (antibody, V domains shown)
VH: QMQLVQSGAEVKKPGSSVKVSCKASGGTFSSYAISWVRQAPGQGLEWMGWISAYNGNTNYAQKLQGRVTMTTDTSTSTAYMELRSLRSDDTAVYYCASLGSYGYTGAFDIWGQGTMATVSS
VL: QSALTQPASVSGSPGQSITISCTGTSSDVGGYNYVSWYQQHPGKAPKLMIYEVSNRPSGVSNRFSGSKSGNTASLTISGLQAEDEADYYCSSYTSSSTLVVFGGGTKLTVL
B11: A-022 (human IgG1 format) (antibody, V domains shown)
VH: EVQLLESGPGLVKPSQTLSLTCTVSGGSISSGGYYWSWIRQHPGKGLEWIGYIYYSGSTYYNPSLKSRVTISVDTSKNQFSLKLSSVTAADTAVYYCARASRSTDYYFDYWGQGTLVTVSS
VL: QPGLTQPPSMSYGLGQTATLTCTGNRNNIGDQGAAWLQQHQGHPPKLLSYRNNNGPSGISERLSASRSGNTASLTISGLQPEDEADYYCSAWDSSLRAWVFGGGTKLTVL
notes: human IgG1 format
B12: A-034 (human IgG1 format) (antibody, V domains shown)
VH: QMQLVQSGGGLVKPGGSLRLSCAASGFTFSSYTMNWVRQAPGKGLEWVSSISSIGTYIYYADSVKGRFTISRDNAKNSLYLQMNSLRAEDTAVYYCARVLLSGSYYGYFDSWGQGTLVTVSS
VL: QSVLTQPPSVSGAPGQRVTISCTGSSSNIGAGYDVHWYQQLPGTAPKLFIYGNSNRPSGVPDRFSGSKSGTSASLAITGLQAEDEADYYCQSYDSSLSGYVFGTGTKVTVL
notes: human IgG1 format

target: T1, IGSF11 (VSIG3), construct used in SPR and BLI not stated (UniProt Q5DX21 23-241, limits assumed); test: BLI (Octet), IgG1 format; IGSF11 construct not stated
T1 sequence (looked up): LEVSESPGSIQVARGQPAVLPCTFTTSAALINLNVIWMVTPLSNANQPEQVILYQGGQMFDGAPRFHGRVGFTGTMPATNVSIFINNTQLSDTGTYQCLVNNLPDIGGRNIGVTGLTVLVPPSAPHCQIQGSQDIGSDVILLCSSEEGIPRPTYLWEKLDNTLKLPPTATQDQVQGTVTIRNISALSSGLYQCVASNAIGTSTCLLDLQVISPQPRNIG

B1 and B2 fall in the same range of Kd: 1 to 10 nM for the first, 1 to 10 nM for the second.

B3 gave a Kd of 10 to 20 nM.

target: T2, extracellular domain (ECD) of human IGSF11 (VSIG3), HIS-tagged (human, UniProt Q5DX21 23-241, biotinylated in the ELISA of Example 4 (site not stated)); test: blocking ELISA (Example 5): IgG titrated and pre-incubated with 200 nM his-tagged IGSF11 ECD, complexes added to immobilised VSIR-Fc, bound IGSF11 detected with anti-hexahistidine-HRP; blocked ligand: VSIR-Fc
T2 construct: also called HIS-IGSF11; IGSF11-HIS; not shown: HIS6 tag
T2 sequence: T1 sequence (looked up)

B2 and B4 are the same in “IC50 (read off the curve)” value: about 2 nM for the first, about 2 nM for the second.

With B5 the “IC50 (read off the curve)” value was about 2 nM.

target: T3, human IGSF11 (VSIG3) expressed on the surface of cells (human, UniProt Q5DX21 23-431); test: FACS on DMS 273 cells treated with IGSF11 siRNA (KD: target knocked down, specificity control)
T3 construct: one molecule for all cell lines; the cell line is named under assay; also called IGSF11-expressing cells; HEK-OE
T3 sequence: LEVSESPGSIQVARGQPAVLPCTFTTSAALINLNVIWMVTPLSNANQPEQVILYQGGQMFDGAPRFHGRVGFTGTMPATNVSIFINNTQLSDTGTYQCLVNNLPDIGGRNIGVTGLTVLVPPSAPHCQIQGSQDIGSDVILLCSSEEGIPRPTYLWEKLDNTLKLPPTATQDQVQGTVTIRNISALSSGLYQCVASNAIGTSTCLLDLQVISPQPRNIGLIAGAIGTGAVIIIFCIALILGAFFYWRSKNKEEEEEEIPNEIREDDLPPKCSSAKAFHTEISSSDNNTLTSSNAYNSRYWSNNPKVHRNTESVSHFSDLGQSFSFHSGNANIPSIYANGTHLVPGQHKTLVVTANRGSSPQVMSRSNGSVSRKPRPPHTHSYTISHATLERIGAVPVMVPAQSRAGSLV

Going from B1 to B2, the percentage binding falls from 5.72% to 4.77%.

Going from B6 to B3, the percentage binding falls from 34.2% to 3.4%.

target: T2, extracellular domain (ECD) of human …; test: ELISA: IGSF11-HIS coated, IgG1 antibody titrated, anti-human antibody-HRP and TMB; X-axis nM and Y-axis absorbance per legend paragraph 30

B2 and B4 are within 1.5-fold of each other in “EC50 (read off the curve)” value: about 8 pM for the first, about 9 pM for the second.

In the case of B5, the “EC50 (read off the curve)” value is reported as about 10 pM.

target: T3, human IGSF11 (VSIG3) expressed on the …; test: FACS on DMS 273 cells treated with scrambled control siRNA (SC)

First: B1
Second: B2
The percentage binding of the first is higher: 81.1% for the first, 75.8% for the second.

Going from B6 to B3, the percentage binding falls from 82.3% to 6.95%.

target: CL-11 (C); test: FACS on CL-11 cells (do not express IGSF11; negative cell line) treated with IGSF11 siRNA (KD)

Compared with B1, B2 is higher in percentage binding: 3.04% for the first, 3.93% for the second.

Compared with B6, B3 is lower in percentage binding: 13.2% for the first, 4.86% for the second.

target: CL-11 (C); test: FACS on CL-11 cells (do not express IGSF11; negative cell line) treated with scrambled control siRNA (SC)

Compared with B1, B2 is higher in percentage binding: 2.31% for the first, 5.11% for the second.

Going from B6 to B3, the percentage binding falls from 8.88% to 2.87%.

target: T2, extracellular domain (ECD) of human …; test: blocking ELISA (Example 5): IgG titrated and pre-incubated with 200 nM his-tagged IGSF11 ECD, complexes added to immobilised VSIR-Fc, bound IGSF11 detected with anti-hexahistidine-HRP; blocked ligand: VSIR-Fc; remark: another data set of the same source

B7 and B8 are within 1.5-fold of each other in “IC50 (read off the curve)” value: about 3 nM for the first, about 4 nM for the second.

target: T3, human IGSF11 (VSIG3) expressed on the …; test: FACS, IgG1 format, DMS 273 cells

First: B1
Second: B2
The EC50 of the first is higher: over 50 nM for the first, 10 to 50 nM for the second.

B9 and B6 cannot be ordered by EC50: over 50 nM for the first, over 10 nM for the second.

Compared with B10, B11 is higher in EC50: under 10 nM for the first, 10 to 50 nM for the second.

target: T3, human IGSF11 (VSIG3) expressed on the …; test: FACS, IgG1 format, recombinant HEK cells expressing IGSF11 (HEK-OE)

B1 and B2 fall in the same range of EC50: 10 to 50 nM for the first, 10 to 50 nM for the second.

B9 and B6 cannot be ordered by EC50: 10 to 50 nM for the first, over 10 nM for the second.

Compared with B3, B11 is lower in EC50: over 50 nM for the first, 10 to 50 nM for the second. The second is the more potent here.

target: T2, extracellular domain (ECD) of human …; test: ELISA, coated IGSF11-HIS, IgG1 format; EC50 grade (* >1 nM, ** 0.05-1 nM, *** 0.02-0.05 nM, **** <0.02 nM)

First: B1
Second: B2
The EC50 of the first is lower: under 0.02 nM for the first, 0.02 to 0.05 nM for the second. The first is the more potent here.

B9 and B6 cannot be ordered by EC50: under 0.02 nM for the first, under 0.02 nM for the second.

First: B3
Second: B12
The EC50 of the first is lower: under 0.02 nM for the first, 0.05 to 1 nM for the second. The first is the more potent here.

Compared with B10, B11 is lower in EC50: 0.02 to 0.05 nM for the first, under 0.02 nM for the second. The second is the more potent here.

target: T3, human IGSF11 (VSIG3) expressed on the …; test: FACS on M579-A2-luc cells treated with IGSF11 siRNA (KD: target knocked down, specificity control)

First: B1
Second: B2
The percentage binding of the first is higher: 2.59% for the first, 2.35% for the second.

Going from B6 to B3, the percentage binding falls from 9.15% to 2.41%.

target: T3, human IGSF11 (VSIG3) expressed on the …; test: FACS on M579-A2-luc cells treated with scrambled control siRNA (SC)

Compared with B1, B2 is lower in percentage binding: 75.3% for the first, 65.4% for the second.

Going from B6 to B3, the percentage binding falls from 65.6% to 2.05%.

target: T1, IGSF11 (VSIG3), construct used in SPR …; test: SPR (Biacore), IgG1 format; IGSF11 construct not stated

B1 and B2 fall in the same range of Kd: 250 to 500 nM for the first, 250 to 500 nM for the second.

First: B9
Second: B3
The Kd of the first is lower: 100 to 250 nM for the first, 250 to 500 nM for the second. The first binds more tightly here.

Compared with B12, B10 is higher in Kd: 250 to 500 nM for the first, over 500 nM for the second. The first binds more tightly here.
